Data taken from patent US20230034906A1 (TRINOMAB BIOTECH, published 2023).

Molecular target: T1, HCMV gB glycoprotein of standard strain Towne (gB_Towne strain) (human cytomegalovirus, strain Towne, UniProt F5HB53 25-700)
T1 construct: also called antigen protein gB0049
Assay: SPR (Biacore), antibody captured on anti-human IgG (Fc) CM5 chip, gB glycoprotein as analyte

B1: TRN1019 (antibody, V domains shown)
VH: QVQLVQSGAEVKKPGESLKISCKGSGYTFTNYWIGWVRQMPGAGLEWMAIIFPRDSYSAYSPSFQGRVTISVDKSISTAYLHWSSLEASDTAVYYCAIYNDLRSGNSWGQGTPLIVSS
VL: DIQMTQSPSSLSASVGDRVTITCRASQSITKYLNWYQQKPGRAPKLLIHTTSTLQSGVPSRFSGSGSGTDFTLTISSLQLEDFGTYYCQQSFSTLWTFGQGTKLDIKR
notes: Fully human antibody; kappa light chain
- binding result: binds
